Consider four substances from publication PMC2925043.

As a reminder, the Kd is the equilibrium constant for the complex coming apart.

For assay [1], the target named is EGFR (high-affinity site) (Homo sapiens) (UniProt P00533). The settings on record: cited from earlier work.
Assay [2] addresses EGFR (low-affinity site) (Homo sapiens) (UniProt P00533). The settings on record: cited from earlier work.
For assay [3], the target named is Drosophila EGFR extracellular region lacking domain V (s-dEGFRΔV) (Drosophila melanogaster) (UniProt P04412).
Assay [4] concerns the target dimerization-defective s-dEGFR variant (s-dEGFR^dim-arm), biotinylated (Drosophila melanogaster) (UniProt P04412). In words: fluorescent ligand binding assay on plates.
Assay [5] addresses Drosophila EGFR extracellular region (s-dEGFR) with C-terminal His tag and AviTag, biotinylated (Drosophila melanogaster) (UniProt P04412). Put plainly: fluorescent ligand binding assay on plates.

Regarding EGF (from UniProt P01133), the values for the Kd in assay [1] and in assay [2] were 0.3 nM and 2 nM, respectively. In the case of “EGF-like domain of Spitz (SpitzEGF, residues 48-105) (ligand)”, the Kd in assay [3] was 368 nM. In the case of “SpitzEGF labeled with Alexa Fluor-488 (ligand)”, the Kd in assay [4] amounted to 920 nM. In assay [5], the KD of the high-affinity site (fit with two independent classes of site) was 4.7 nM and the Kd is 49.5 nM.

As to “Spitz_(EGFΔC), variant of SpitzEGF with a C-terminal truncation of six amino acids (ligand)”, the Kd in assay [3] came out at 4370 nM.
